Results reported in publication PMC3351150.

Molecular target: controller protein C.Esp1396I
Assay: crystal structure

controller protein C.Esp1396I (natural protein)
stoichiometry N: 2
